Square brackets hold non-standard residues; d marks the D form. Ends that are not written are not given here. hArg = N=C(N)NCCCC[C@H](N)C(=O)O; Nle = CCCC[C@H](N)C(=O)O; Aib = CC(C)(N)C(=O)O
T1: truncated human P1R deleted for residues (24-181) (hP1R-delNt) (human, UniProt Q03431 182-593)
T1 construct: whole, on cells; also called delNT receptor
T1 sequence (looked up): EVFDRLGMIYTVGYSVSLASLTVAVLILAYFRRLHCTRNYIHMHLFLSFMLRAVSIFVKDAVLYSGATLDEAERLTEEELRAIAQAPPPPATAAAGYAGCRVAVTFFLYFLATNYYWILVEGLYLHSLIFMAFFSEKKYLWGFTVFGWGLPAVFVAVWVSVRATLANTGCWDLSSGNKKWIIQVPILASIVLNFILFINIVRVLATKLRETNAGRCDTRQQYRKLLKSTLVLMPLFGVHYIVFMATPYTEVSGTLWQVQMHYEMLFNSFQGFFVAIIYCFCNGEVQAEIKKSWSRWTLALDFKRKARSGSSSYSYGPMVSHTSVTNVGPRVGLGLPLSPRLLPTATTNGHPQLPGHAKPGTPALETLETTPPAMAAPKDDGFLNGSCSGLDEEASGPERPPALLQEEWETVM

T2: wild-type human PTH/PTHrP receptor (hP1R-WT) (human, UniProt Q03431 27-593)
T2 construct: whole, on cells; HKRK-B28 cells express ~280,000 receptors per cell; also called PTH-1 receptor; PTH-1R
T2 sequence (looked up): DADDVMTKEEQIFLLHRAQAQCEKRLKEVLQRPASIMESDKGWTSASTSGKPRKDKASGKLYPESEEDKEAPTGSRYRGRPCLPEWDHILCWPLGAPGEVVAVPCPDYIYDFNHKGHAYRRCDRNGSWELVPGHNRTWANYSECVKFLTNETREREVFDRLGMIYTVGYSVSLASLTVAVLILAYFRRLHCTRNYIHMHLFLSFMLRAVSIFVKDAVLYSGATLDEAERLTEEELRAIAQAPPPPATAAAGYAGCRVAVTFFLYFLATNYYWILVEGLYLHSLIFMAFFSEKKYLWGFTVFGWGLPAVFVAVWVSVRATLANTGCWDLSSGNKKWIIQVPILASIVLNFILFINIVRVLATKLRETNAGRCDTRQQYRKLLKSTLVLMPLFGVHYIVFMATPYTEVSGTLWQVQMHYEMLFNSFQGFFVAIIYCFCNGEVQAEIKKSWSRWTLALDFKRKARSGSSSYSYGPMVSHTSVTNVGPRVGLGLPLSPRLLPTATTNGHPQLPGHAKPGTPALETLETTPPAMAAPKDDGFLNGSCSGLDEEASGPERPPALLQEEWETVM


Legend:
[1] = molecular target: T1, truncated human P1R deleted for …; test: Scatchard transformation of homologous competition binding, 125I-[Aib1,3,M]PTH(1-21) tracer, COS-7 cells expressing P1R-delNt
Method: (§1) The cells were subsequently lysed with 0.5 mL […] NaOH and counted for radioactivity. For each tracer and in each experiment, the non-specific binding was determined as the radioactivity that bound in the presence of the same unlabeled peptide at a concentration of 1 μM, and was ˜1% of total radioactivity added for each tracer. The maximum specific binding (B₀) was the total radioactivity bound in the absence of competing ligand, corrected for nonspecific binding, and for each tracer, ranged from 8% to 20% of the total radioactivity added. Nonlinear regression was used to calculate binding IC₅₀ values (see below). Scatchard transformations of homologous competition binding data derived from studies with 26 fmol of ¹²⁵I-[Aib^{1,3},M]PTH(1-21) were employed for estimations of apparent equilibrium dissociation constant (kDapps) and total number of ligand binding sites (Bₘₐₓ), assuming a single class of binding sites and equal affinities of the iodinated and non iodinated ligand.
(§2) To potentially improve affinity of this peptide, the paired Aib-1,3 modifications were introduced to produce [Aib^{1,3},M]PTH(1-21). […] The total specific binding observed in COS-7 cells tranfected with vector DNA alone was<2% of total radioactivity added. This radioligand, therefore, enabled competition binding experiments to be performed with both the wild-type and truncated PTH-1 receptors.

[2] = molecular target: T2, wild-type human PTH/PTHrP receptor …; test: Scatchard transformation of homologous competition binding, 125I-[Aib1,3,M]PTH(1-21) tracer, COS-7 cells expressing P1R-WT
Method: as §1, §2

[3] = molecular target: T2, wild-type human PTH/PTHrP receptor …; test: cell-based or functional assay

| Binder | Kd [1] [µM] | Kd [2] [µM] | cAMP EMAX(obs.) in SaOS-2 cells [3] [pmole/well] |
| --- | --- | --- | --- |
| [Aib]V[Aib]EIQL[Nle]HQ[hArg]AKWLASVRRY-NH2 (N-terminus assumed; SMILES CCCC[C@H](NC(=O)[C@H](CC(C)C)NC(=O)[C@H](CCC(N)=O)NC(=O)[C@@H](NC(=O)[C@H](CCC(=O)O)NC(=O)C(C)(C)NC(=O)[C@@H](NC(=O)C(C)(C)N)C(C)C)[C@@H](C)CC)C(=O)N[C@@H](Cc1c[nH]cn1)C(=O)N[C@@H](CCC(N)=O)C(=O)N[C@@H](CCCCNC(=N)N)C(=O)N[C@@H](C)C(=O)N[C@@H](CCCCN)C(=O)N[C@@H](Cc1c[nH]c2ccccc12)C(=O)N[C@@H](CC(C)C)C(=O)N[C@@H](C)C(=O)N[C@@H](CO)C(=O)N[C@H](C(=O)N[C@@H](CCCNC(=N)N)C(=O)N[C@@H](CCCNC(=N)N)C(=O)N[C@@H](Cc1ccc(O)cc1)C(N)=O)C(C)C, unlabeled peptide; also called 674 [Aib^1,3, M]PTH (1-21); 674 [Aib^1,3M]PTH(1-21)) [[Aib^1,3,M]PTH(1-21)] | 0.029 | 0.017 | – |
| [Aib]V[Aib]EIQLMHQ[hArg]AKW-NH2 (N-terminus assumed; SMILES CC[C@H](C)[C@H](NC(=O)[C@H](CCC(=O)O)NC(=O)C(C)(C)NC(=O)[C@@H](NC(=O)C(C)(C)N)C(C)C)C(=O)N[C@@H](CCC(N)=O)C(=O)N[C@@H](CC(C)C)C(=O)N[C@@H](CCSC)C(=O)N[C@@H](Cc1c[nH]cn1)C(=O)N[C@@H](CCC(N)=O)C(=O)N[C@@H](CCCCNC(=N)N)C(=O)N[C@@H](C)C(=O)N[C@@H](CCCCN)C(=O)N[C@@H](Cc1c[nH]c2ccccc12)C(N)=O, also called 671 [Aib^1,3, M]PTH (1-14); 671 [Aib^1,3M]PTH(1-14)) [[Aib^1,3,M]PTH(1-14)] | – | – | 320 |

— patent US20050026839A1 (GENERAL HOSPITAL, published 2005)
